This experiment deals with human follicle stimulating hormone (recombinant hFSH) (human, UniProt P01215, ^125 I label on the tracer form (which chain and residue is not stated); unlabelled in the cold competitor, the affinity resin and the cell assay). Briefly: 125I-hFSH radioligand binding, summary of Example 2.

B1: soluble hFSHR-EC secreted from baculovirus-infected insect cells (gp67 signal peptide fusion, pAcGP67-hFSHR-EC) (receptor)
chain: ADQCHHRICHCSNRVFLCQESKVTEIPSDLPRNAIELRFVLTKLRVIQKGAFSGFGDLEKIEISQNDVLEVIEADVFSNLPKLHEIRIEKANNLLYINPEAFQNLPNLQYLLISNTGIKHLPDVHKIHSLQKVLLDIQDNINIHTIERNSFVGLSFESVILWLNKNGIQEIHNCAFNGTQLDELNLSDNNNLEELPNDVFHGASGPVILDISRTRIHSLPSYGLENLKKLRARSTYNLKKLPTLEKLVALMEASLTYPSHCCAFANWRRQISELHPICNKSILRQEVDYMTQTRGQRSSLAEDNESSYSRGFDMTYTEFDYDLCNEVVDVTCSPKPDAFNPCEDIMGYNILR
In the case of B1, the binding result is reported as “binds”.

These data come from US6033903, “Method of expressing and secreting soluble extracellular domains of human gonadotropin hormone receptors” (Applied Research Systems, Ars Holding N.V., dated 2000).
